Assay [1] addresses T1, human PD1 expressed on cells (human, UniProt Q15116 25-288). As to the kind of experiment: cell-based or functional assay.
In assay [2] the target is T1, human PD1 expressed on cells. As to the kind of experiment: flow cytometry, PD1 CHO-K1 cells. The protocol: (§1) Purified IgGs were tested in FACs for binding to human and cyno PD1 expressed on CHO-K1 stable cell lines and CHO-K1 wild-type cells. […] Binding of IgGs was detected with a mouse anti-human IgG conjugated to FITC. Results were analyzed by examining the Mean Fluorescence Intensity (MFI) of 10000 cells per sample in the BL-1 channel detector of a flow cytometer (Attune™ NxT Acoustic Focusing Cytometer, Invitrogen/ThermoFisher Scientific).
(§2) Antibodies to PD1 were analysed for concentration-dependent binding at the cell surface via flow cytometry. Initial analyses were performed on CHO cells stably-transfected with human or cyno PD1.

In assay [3] the target is T2, cyno PD1 expressed on CHO-K1 cells (cynomolgus monkey, UniProt Q15116 25-288 (human entry)).
T2 construct: also called cyno PD1+ CHO cells
T2 chain: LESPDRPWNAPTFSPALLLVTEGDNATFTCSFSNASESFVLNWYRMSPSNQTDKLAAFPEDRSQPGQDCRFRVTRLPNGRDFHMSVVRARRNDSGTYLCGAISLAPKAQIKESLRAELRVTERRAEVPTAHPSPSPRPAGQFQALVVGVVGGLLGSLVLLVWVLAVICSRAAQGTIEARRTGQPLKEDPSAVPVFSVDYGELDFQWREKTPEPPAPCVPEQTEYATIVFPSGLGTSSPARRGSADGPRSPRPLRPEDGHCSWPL
As to the kind of experiment: flow cytometry, PD1 CHO-K1 cells. The protocol: as §1, §2

Assay [4] concerns the target T3, cynomolgus monkey PD1 His tag (monomeric) (cynomolgus monkey, UniProt Q15116 25-170 (human entry), limits assumed).
T3 construct: Soluble monomeric analyte; whole entry named; also called monomeric cyno PD1; not shown: His tag
T3 chain: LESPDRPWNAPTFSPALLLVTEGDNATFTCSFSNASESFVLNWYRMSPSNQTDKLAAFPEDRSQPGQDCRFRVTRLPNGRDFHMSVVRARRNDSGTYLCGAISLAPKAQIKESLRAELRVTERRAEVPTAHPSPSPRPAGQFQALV
Description: SPR (Biacore); cyno KD against human KD. The procedure: (§3) Affinity (KD) of purified IgGs was determined via SPR with antigen in-solution on a Biacore 3000 (GE). A mouse anti-human antibody (CH1 specific) was immobilized on a CM5 Sensor Chip to a level of 2000 RU in acetate buffer at pH 4.5 using amine coupling following the Wizard instructions for two channels. One channel was used for background signal correction. The standard running buffer HBS-EP pH 7.4 was used. Regeneration was performed with a single injection of 10 μl of 10 mM Glycine at pH 1.5 at 20 μl/minute. IgG samples were injected for 2 minutes at 50 nM at 30 μl/min followed by and off-rate of 60 seconds. […] The obtained sensorgrams were analysed using the Biacore 3000 evaluation (BIAevaluation) software. The KD was calculated by simultaneous fitting of the association and dissociation phases to a 1:1 Langmuir binding model.
(§4) Biacore analyses of binding affinity was performed for all IgGs to solution-phase, monomeric human and cyno PD1 proteins.
On the technique in general: SPR reads the build-up and loss of mass on a sensor chip optically.

The target of assay [5] is T4, human PD1 human Fc tagged recombinant protein (human, UniProt Q15116 25-170, limits assumed).
T4 construct: also called huPD1-Fc; huPD-1-Fc; not shown: human Fc tag
T4 sequence (Q15116 25-170 limits assumed): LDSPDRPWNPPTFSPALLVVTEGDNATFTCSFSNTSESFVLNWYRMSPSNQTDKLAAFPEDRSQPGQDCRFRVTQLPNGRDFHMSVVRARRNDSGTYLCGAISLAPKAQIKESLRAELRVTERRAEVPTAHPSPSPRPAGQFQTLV
As to the kind of experiment: direct ELISA, IgG1null on coated PD1-Fc. The procedure:
(§5) Binding and cross-reactivity of the lead panel to the recombinant proteins was initially assessed by binding ELISA. The human PD1 human Fc tagged recombinant protein and the cynomolgus monkey PD1 human Fc tagged recombinant protein were coated to the surface of MaxiSorp™ flat-bottom 96 well plate at 1 μg/ml. […] The Fabs were detected using mouse anti-c-myc antibody followed by donkey anti-mouse IgG conjugated to horseradish peroxidase. The IgGs were detected using the mouse anti-human IgG conjugated to horseradish peroxidase. Binding signals were visualized with 3,3′,5,5′-Tetrannethylbenzidine Substrate Solution (TMB) and the absorbance measured at 450 nm.
(§6) The purified IgGs described above were then tested for binding to human and cyno PD1-Fc in direct titration ELISA format. […] As the ELISA EC50 values for directly binding IgGs are strongly influenced by avidity, rather than true 1:1 binding affinity, we then proceeded to perform higher-sensitivity, solution-phase epitope competition and Biacore binding affinity determinations, as outlined below.
Background: In an ELISA, binding on a coated surface is turned into a signal by an enzyme label.

For assay [6], the target named is T5, cynomolgus monkey PD1 human Fc tagged recombinant protein (cynomolgus monkey, UniProt Q15116 25-170 (human entry), limits assumed).
T5 construct: also called cyPD1-Fc; cyPD-1-Fc; not shown: human Fc tag
T5 chain: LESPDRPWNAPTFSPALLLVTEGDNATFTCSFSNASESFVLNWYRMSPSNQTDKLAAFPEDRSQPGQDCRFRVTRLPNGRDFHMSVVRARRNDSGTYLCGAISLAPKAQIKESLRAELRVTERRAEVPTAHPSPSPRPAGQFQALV
Description: direct ELISA, IgG1null on coated PD1-Fc. The protocol:
as §5, §6

Assay [7] concerns the target T4, human PD1 human Fc tagged recombinant …. Description: direct ELISA, IgG1null on coated PD1-Fc. The procedure:
as §5, §6
This is another data set of the same source.

The target in assay [8] is T5, cynomolgus monkey PD1 human Fc tagged …. Description: direct ELISA, IgG1null on coated PD1-Fc. The protocol:
as §5, §6

The target of assay [9] is T6, biotinylated human PD1-His/AviTag (human, UniProt Q15116 25-170, limits assumed, biotinylated).
T6 construct: Alphascreen antigen; whole entry named; also called biotinylated monomeric human PD1; not shown: His/AviTag
T6 sequence (Q15116 25-170 limits assumed): as the sequence (Q15116 25-170 limits assumed) above
Description: Alphascreen competition vs IgG1-Mab005 (humanized). The protocol: The AlphaScreen assay (Perkin Elmer) was performed in a 25 μl final volume in 384-well white microtiter plates (Greiner). The reaction buffer contained 1×PBS pH 7.3 (Oxoid, Cat. nr. BRO014G) and 0.05% (v/v) Tween® 20 (Sigma, Cat. nr. P9416). Purified IgG samples were titrated in three fold serial dilutions starting at 500 nM final concentration and incubated with biotinylated human PD1-His/AviTag at 0.6 nM final concentration for 20 minutes at room temperature. […] Followed by addition of the Streptavidin Donor beads at 20 μg/ml (final concentration) and incubation for 30 minutes at room temperature. The emission of light was measured in the EnVision multilabel plate reader (Perkin Elmer) and analysed using the EnVision manager software. Values were reported as Counts Per Second (CPS) and corrected for crosstalk.
(Alpha assays give light when donor and acceptor beads are brought close together.)

Assay [10] has as its target T7, human PD1 His tagged (monomeric) (human, UniProt Q15116 25-170, limits assumed).
T7 construct: Soluble monomeric analyte; whole entry named; also called monomeric human PD1; not shown: His tag
As to the kind of experiment: SPR (Biacore), IgG captured, monomeric PD1-His analyte. The procedure: as §3, §4

The target in assay [11] is T3, cynomolgus monkey PD1 His tag …. Described as above. The protocol: as §3, §4

Read-outs that look alike come from different tables or passages of the source.

For orientation: EC50 means the concentration that produces a half-maximal response. Broadly, the IC50 is the concentration that inhibits the measured activity by half. The term Kd denotes the equilibrium constant for the complex coming apart. As usually defined, the koff is the rate constant with which the complex falls apart. Broadly, the kon is a measure of how fast the partners come together.

T7 sequence (Q15116 25-170 limits assumed): as the sequence (Q15116 25-170 limits assumed) above
T1 sequence (Q15116 25-288 limits assumed): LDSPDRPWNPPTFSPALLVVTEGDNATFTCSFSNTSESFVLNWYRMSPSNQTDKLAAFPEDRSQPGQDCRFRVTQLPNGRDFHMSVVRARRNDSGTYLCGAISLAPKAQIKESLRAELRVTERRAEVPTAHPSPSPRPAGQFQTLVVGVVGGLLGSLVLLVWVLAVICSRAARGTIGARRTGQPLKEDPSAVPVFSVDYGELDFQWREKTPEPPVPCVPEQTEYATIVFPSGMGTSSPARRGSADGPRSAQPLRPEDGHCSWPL

B1: IgG1-Mab005 (humanized) (antibody, V domains shown)
VH: EVQLVESGGGLVQPGGSLRLSCAASGFTFSSYMMSWVRQAPGKGLEWVATISGGGANTYYPDSVKGRFTISRDNAKNSLYLQMNSLRAEDTAVYYCARQLYYFDYWGQGTTVTVSS
VL: DIQMTQSPSSLSASVGDRVTITCLASQTIGTWLTWYQQKPGKAPKLLIYTATSLADGVPSRFSGSGSGTDFTLTISSLQPEDFATYYCQQVYSIPWTFGGGTKVEIK
notes: tested as human IgG1null (IgG1 with L234A, L235A, G237A) with human Ckappa; also called Mab005-IgG1 (humanized); Mab005-IgG1 (hum)
B1: the “EC50 (ng/ml), IgG1null blockade of human PD1/PD-L1” value in [1] was 285 ng/mL. Moreover, the EC50 was found to be 2.32 nM in assay [2]; 6.53 nM in assay [3]; 0.114 nM in assay [5]; 0.132 nM in [6]; 0.137 nM in [7]; 0.152 nM in assay [8]. The “human/cyno affinity differential (fold)” value in [4] turned out to be 8 fold. The molecule further displayed a concentration for half-maximal inhibition (IC50) in assay [9] of 2.14 nM. The results for the Kd in [10] and in assay [11] were 4 nM and 32 nM, respectively. Besides, the koff was found to be 0.00047 s⁻¹ in assay [10] and 0.0028 s⁻¹ in assay [11]. Also, the results for the kon in assay [10] and in assay [11] were 120000 M⁻¹ s⁻¹ and 88000 M⁻¹ s⁻¹, respectively.

For the origin of these results see patent US20240124590A1 (ULTRAHUMAN EIGHT, published 2024).
